The values below come from the supplement of paper PMC9112550, “Optimization of the antimicrobial peptide Bac7 by deep mutational scanning” (BMC Biology, 2022).
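Also: peptides expressed intracellularly from a pBAD plasmid library in pooled LB shake-flask culture, induced with 0.3% L-arabinose, DNA abundance read by NGS, three biological replicates, DESeq2 with apeglm shrinkage.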

For the data set, the system named is Escherichia coli TOP10. Put plainly: shrunken log2 fold change of peptide-encoding DNA abundance (4.5 h post-induction vs induction); higher = less antimicrobial activity (less host growth inhibition). The settings on record: time post-induction: 4.5 h; library: site-saturation at positions 5, 18, 19, 20.
Turning to RRIRARPPRLPRPRPRPSVEPRP, the “shrunken log2 fold change” value came out at 0.49.

In the case of RRIRERPPRLPRPRPRPRHIPRP, the “shrunken log2 fold change” value was -0.643.

Turning to RRIRYRPPRLPRPRPRPWRVPRP, the “shrunken log2 fold change” value was determined as 0.0112.

Regarding RRIRRRPPRLPRPRPRPKQRPRP, the “shrunken log2 fold change” value turned out to be 0.288.

With RRIRLRPPRLPRPRPRPYCIPRP, the “shrunken log2 fold change” value was -0.121.

On to RRIRIRPPRLPRPRPRPITQPRP, for which the “shrunken log2 fold change” value was -0.186.

As for RRIRPRPPRLPRPRPRPYNRPRP, the “shrunken log2 fold change” value was -0.0087.

For the sequence RRIRCRPPRLPRPRPRPSHMPRP, the “shrunken log2 fold change” value is -0.838.

As to RRIRPRPPRLPRPRPRPFFEPRP, the “shrunken log2 fold change” value amounted to 0.229.

For RRIRMRPPRLPRPRPRPMHYPRP, the “shrunken log2 fold change” value is -0.221.

On to RRIRYRPPRLPRPRPRPQVVPRP, for which the “shrunken log2 fold change” value is -0.166.

For RRIRYRPPRLPRPRPRPGHSPRP, the “shrunken log2 fold change” value was -0.13.

RRIRLRPPRLPRPRPRPSISPRP: the “shrunken log2 fold change” value is -0.655.

In the case of RRIRERPPRLPRPRPRPWFSPRP, the “shrunken log2 fold change” value was -0.336.

For the sequence RRIRERPPRLPRPRPRPVLYPRP, the “shrunken log2 fold change” value was -0.00668.

On to RRIRTRPPRLPRPRPRPWPYPRP, for which the “shrunken log2 fold change” value was -0.157.

With RRIRNRPPRLPRPRPRPKDYPRP, the “shrunken log2 fold change” value was -0.232.

With RRIRIRPPRLPRPRPRPFDVPRP, the “shrunken log2 fold change” value is -0.296.

Turning to RRIRSRPPRLPRPRPRPLIMPRP, the “shrunken log2 fold change” value was -0.47.

As for RRIRARPPRLPRPRPRPEIEPRP, the “shrunken log2 fold change” value amounted to 0.719.

With RRIRTRPPRLPRPRPRPSYWPRP, the “shrunken log2 fold change” value was -0.153.

As for RRIRVRPPRLPRPRPRPMFQPRP, the “shrunken log2 fold change” value is -0.267.

In the case of RRIRWRPPRLPRPRPRPQHRPRP, the “shrunken log2 fold change” value was 0.25.

Regarding RRIRCRPPRLPRPRPRPPDIPRP, the “shrunken log2 fold change” value is 0.409.

In the case of RRIRLRPPRLPRPRPRPKIRPRP, the “shrunken log2 fold change” value was -0.128.

For RRIRLRPPRLPRPRPRPRWNPRP, the “shrunken log2 fold change” value is -0.0729.

For the sequence RRIRCRPPRLPRPRPRPLAVPRP, the “shrunken log2 fold change” value was determined as 0.0263.

For the sequence RRIRPRPPRLPRPRPRPAPWPRP, the “shrunken log2 fold change” value amounted to 0.436.

As to RRIRQRPPRLPRPRPRPIQQPRP, the “shrunken log2 fold change” value is -0.039.

RRIRRRPPRLPRPRPRPAADPRP: the “shrunken log2 fold change” value stood at 0.594.

Consider RRIRMRPPRLPRPRPRPFFGPRP, for which the “shrunken log2 fold change” value was -0.0869.

Take RRIRMRPPRLPRPRPRPQFYPRP: the “shrunken log2 fold change” value was -0.263.

Take RRIRRRPPRLPRPRPRPEWRPRP: the “shrunken log2 fold change” value amounted to 0.639.

With RRIRFRPPRLPRPRPRPFFYPRP, the “shrunken log2 fold change” value was -0.308.

RRIRGRPPRLPRPRPRPGCIPRP: the “shrunken log2 fold change” value came to 0.445.

As for RRIRIRPPRLPRPRPRPPHCPRP, the “shrunken log2 fold change” value is -0.391.

As for RRIRERPPRLPRPRPRPMLPPRP, the “shrunken log2 fold change” value is -0.397.

Regarding RRIRWRPPRLPRPRPRPLDAPRP, the “shrunken log2 fold change” value was determined as 0.354.

Consider RRIRQRPPRLPRPRPRPDSRPRP, for which the “shrunken log2 fold change” value was -0.0119.

Take RRIRQRPPRLPRPRPRPPIAPRP: the “shrunken log2 fold change” value came out at 0.104.

With RRIRLRPPRLPRPRPRPQYSPRP, the “shrunken log2 fold change” value is -0.1.

Consider RRIRARPPRLPRPRPRPPSQPRP, for which the “shrunken log2 fold change” value is 0.669.

Take RRIRFRPPRLPRPRPRPTCSPRP: the “shrunken log2 fold change” value was -0.0827.

Take RRIRRRPPRLPRPRPRPLQQPRP: the “shrunken log2 fold change” value was determined as 0.0366.

For RRIRDRPPRLPRPRPRPSSDPRP, the “shrunken log2 fold change” value is 0.412.

Turning to RRIRCRPPRLPRPRPRPFGNPRP, the “shrunken log2 fold change” value was -0.365.

Take RRIRVRPPRLPRPRPRPGEYPRP: the “shrunken log2 fold change” value came to 0.00369.

As for RRIRPRPPRLPRPRPRPLKYPRP, the “shrunken log2 fold change” value was -0.424.

For the sequence RRIRPRPPRLPRPRPRPFLPPRP, the “shrunken log2 fold change” value is -0.0925.

In the case of RRIRKRPPRLPRPRPRPWHCPRP, the “shrunken log2 fold change” value was 0.0258.

Turning to RRIRLRPPRLPRPRPRPNWHPRP, the “shrunken log2 fold change” value was -0.0136.

For RRIRIRPPRLPRPRPRPWRWPRP, the “shrunken log2 fold change” value is 0.182.

With RRIRDRPPRLPRPRPRPFVMPRP, the “shrunken log2 fold change” value is 0.0243.

With RRIRMRPPRLPRPRPRPIFLPRP, the “shrunken log2 fold change” value is -0.227.

Turning to RRIRSRPPRLPRPRPRPMGDPRP, the “shrunken log2 fold change” value is 0.00987.

For RRIRNRPPRLPRPRPRPITMPRP, the “shrunken log2 fold change” value was -0.533.

Take RRIRERPPRLPRPRPRPLKHPRP: the “shrunken log2 fold change” value was -0.425.

On to RRIRCRPPRLPRPRPRPMDFPRP, for which the “shrunken log2 fold change” value is -0.151.

On to RRIRPRPPRLPRPRPRPILFPRP, for which the “shrunken log2 fold change” value was -0.124.

As to RRIRERPPRLPRPRPRPDGIPRP, the “shrunken log2 fold change” value is -0.00168.

Consider RRIRRRPPRLPRPRPRPLFPPRP, for which the “shrunken log2 fold change” value is 0.0907.

As for RRIRLRPPRLPRPRPRPNWDPRP, the “shrunken log2 fold change” value is 0.14.

RRIRARPPRLPRPRPRPMQDPRP: the “shrunken log2 fold change” value was determined as 0.188.

Turning to RRIRLRPPRLPRPRPRPPKNPRP, the “shrunken log2 fold change” value was determined as 0.43.

Regarding RRIRCRPPRLPRPRPRPIFMPRP, the “shrunken log2 fold change” value is -0.269.

As for RRIRIRPPRLPRPRPRPVMQPRP, the “shrunken log2 fold change” value was -0.00187.

Turning to RRIRYRPPRLPRPRPRPRCAPRP, the “shrunken log2 fold change” value is -0.199.

For RRIRERPPRLPRPRPRPFAFPRP, the “shrunken log2 fold change” value was -0.0942.

For RRIRWRPPRLPRPRPRPVMWPRP, the “shrunken log2 fold change” value amounted to 0.236.

Turning to RRIRMRPPRLPRPRPRPSAKPRP, the “shrunken log2 fold change” value came to 0.0449.

Turning to RRIRSRPPRLPRPRPRPKMLPRP, the “shrunken log2 fold change” value is -0.149.

With RRIRYRPPRLPRPRPRPLANPRP, the “shrunken log2 fold change” value was -0.371.

With RRIRNRPPRLPRPRPRPACHPRP, the “shrunken log2 fold change” value turned out to be 0.152.

For the sequence RRIRERPPRLPRPRPRPYLRPRP, the “shrunken log2 fold change” value was -0.319.

Consider RRIRNRPPRLPRPRPRPYPKPRP, for which the “shrunken log2 fold change” value was 0.0245.

As to RRIRIRPPRLPRPRPRPSIYPRP, the “shrunken log2 fold change” value was -0.925.

Consider RRIRWRPPRLPRPRPRPEVKPRP, for which the “shrunken log2 fold change” value came to 0.21.

On to RRIRRRPPRLPRPRPRPTIAPRP, for which the “shrunken log2 fold change” value came out at 0.0702.

With RRIRTRPPRLPRPRPRPPEAPRP, the “shrunken log2 fold change” value came out at 0.205.

As to RRIRHRPPRLPRPRPRPDCAPRP, the “shrunken log2 fold change” value was 0.196.

On to RRIRARPPRLPRPRPRPQPEPRP, for which the “shrunken log2 fold change” value is 1.04.

With RRIRWRPPRLPRPRPRPREIPRP, the “shrunken log2 fold change” value turned out to be 0.426.

Consider RRIRCRPPRLPRPRPRPWDQPRP, for which the “shrunken log2 fold change” value came out at 0.0182.

In the case of RRIRIRPPRLPRPRPRPEWHPRP, the “shrunken log2 fold change” value is -0.514.

Take RRIRTRPPRLPRPRPRPHYHPRP: the “shrunken log2 fold change” value is -0.853.

Turning to RRIRERPPRLPRPRPRPTAMPRP, the “shrunken log2 fold change” value came out at 0.109.

For RRIRPRPPRLPRPRPRPACRPRP, the “shrunken log2 fold change” value was found to be 0.183.

For RRIRTRPPRLPRPRPRPAMQPRP, the “shrunken log2 fold change” value is -0.00933.

Take RRIRCRPPRLPRPRPRPKMPPRP: the “shrunken log2 fold change” value came out at 0.0277.

For the sequence RRIRYRPPRLPRPRPRPFPHPRP, the “shrunken log2 fold change” value is -0.137.

RRIRHRPPRLPRPRPRPRWGPRP: the “shrunken log2 fold change” value worked out at 0.255.

Regarding RRIRMRPPRLPRPRPRPIHMPRP, the “shrunken log2 fold change” value was -0.221.

In the case of RRIRCRPPRLPRPRPRPFSMPRP, the “shrunken log2 fold change” value is -0.107.

For RRIRNRPPRLPRPRPRPTNHPRP, the “shrunken log2 fold change” value was -0.527.

As to RRIRERPPRLPRPRPRPKIMPRP, the “shrunken log2 fold change” value was -1.24.

Turning to RRIRNRPPRLPRPRPRPFANPRP, the “shrunken log2 fold change” value was -0.0288.

In the case of RRIRARPPRLPRPRPRPLPFPRP, the “shrunken log2 fold change” value is -0.249.

RRIRVRPPRLPRPRPRPNENPRP: the “shrunken log2 fold change” value was -0.349.

RRIRCRPPRLPRPRPRPLDHPRP: the “shrunken log2 fold change” value was -0.289.

As for RRIRKRPPRLPRPRPRPPYLPRP, the “shrunken log2 fold change” value is 0.0134.

Consider RRIRQRPPRLPRPRPRPIKPPRP, for which the “shrunken log2 fold change” value came out at 0.0492.

Turning to RRIRIRPPRLPRPRPRPQLPPRP, the “shrunken log2 fold change” value is -0.0273.

For RRIRRRPPRLPRPRPRPSWMPRP, the “shrunken log2 fold change” value was -0.324.

Consider RRIRQRPPRLPRPRPRPLMKPRP, for which the “shrunken log2 fold change” value was 0.158.

As to RRIRNRPPRLPRPRPRPQAMPRP, the “shrunken log2 fold change” value is -0.0233.

Take RRIRGRPPRLPRPRPRPQSKPRP: the “shrunken log2 fold change” value came out at 0.348.

Take RRIRYRPPRLPRPRPRPRIQPRP: the “shrunken log2 fold change” value is -0.203.

For the sequence RRIRPRPPRLPRPRPRPPYAPRP, the “shrunken log2 fold change” value is 0.193.

As for RRIRVRPPRLPRPRPRPCLWPRP, the “shrunken log2 fold change” value stood at 0.0452.

With RRIRIRPPRLPRPRPRPYMIPRP, the “shrunken log2 fold change” value was -0.307.

In the case of RRIRLRPPRLPRPRPRPIVKPRP, the “shrunken log2 fold change” value was -0.0195.

On to RRIRYRPPRLPRPRPRPRQIPRP, for which the “shrunken log2 fold change” value is -0.137.

Regarding RRIRTRPPRLPRPRPRPRPTPRP, the “shrunken log2 fold change” value turned out to be 0.626.

On to RRIRFRPPRLPRPRPRPDMSPRP, for which the “shrunken log2 fold change” value is -0.0802.

Consider RRIRKRPPRLPRPRPRPVTRPRP, for which the “shrunken log2 fold change” value came out at 0.754.

Consider RRIRSRPPRLPRPRPRPIRMPRP, for which the “shrunken log2 fold change” value was -0.109.

Regarding RRIRVRPPRLPRPRPRPPRHPRP, the “shrunken log2 fold change” value was found to be 0.252.

In the case of RRIRNRPPRLPRPRPRPNSCPRP, the “shrunken log2 fold change” value is -0.137.

Turning to RRIRLRPPRLPRPRPRPWVPPRP, the “shrunken log2 fold change” value is -0.569.

RRIRMRPPRLPRPRPRPNDRPRP: the “shrunken log2 fold change” value turned out to be 0.141.

For the sequence RRIRNRPPRLPRPRPRPFYPPRP, the “shrunken log2 fold change” value was -0.5.

As for RRIRHRPPRLPRPRPRPRYCPRP, the “shrunken log2 fold change” value is -0.293.

Turning to RRIRIRPPRLPRPRPRPPQSPRP, the “shrunken log2 fold change” value came to 0.0652.

For RRIRQRPPRLPRPRPRPSLLPRP, the “shrunken log2 fold change” value was -0.216.

In the case of RRIRCRPPRLPRPRPRPMDLPRP, the “shrunken log2 fold change” value was -0.0384.
